Among the data in PMC11904967 are stoichiometry N values, retold here.

This assay concerns the target pyruvate kinase PKM (PKM2), endogenous in PANC‐1 cells (human (endogenous in PANC-1)) (UniProt P14618). In words: western blotting of monomers and dimers; AsPC-1 and PANC-1 cells transduced with HACD2 WT, HACD2 MUT or vector, or with HACD2 knockdown; how dimers were kept on the gel is not told. On the technique in general: A western blot detects proteins with antibodies after separation by electrophoresis.

Chain of pyruvate kinase PKM (PKM2), endogenous in PANC‐1 cells, P14618 1-531 (natural protein; other documents disagree on this pair) (P14618 whole entry): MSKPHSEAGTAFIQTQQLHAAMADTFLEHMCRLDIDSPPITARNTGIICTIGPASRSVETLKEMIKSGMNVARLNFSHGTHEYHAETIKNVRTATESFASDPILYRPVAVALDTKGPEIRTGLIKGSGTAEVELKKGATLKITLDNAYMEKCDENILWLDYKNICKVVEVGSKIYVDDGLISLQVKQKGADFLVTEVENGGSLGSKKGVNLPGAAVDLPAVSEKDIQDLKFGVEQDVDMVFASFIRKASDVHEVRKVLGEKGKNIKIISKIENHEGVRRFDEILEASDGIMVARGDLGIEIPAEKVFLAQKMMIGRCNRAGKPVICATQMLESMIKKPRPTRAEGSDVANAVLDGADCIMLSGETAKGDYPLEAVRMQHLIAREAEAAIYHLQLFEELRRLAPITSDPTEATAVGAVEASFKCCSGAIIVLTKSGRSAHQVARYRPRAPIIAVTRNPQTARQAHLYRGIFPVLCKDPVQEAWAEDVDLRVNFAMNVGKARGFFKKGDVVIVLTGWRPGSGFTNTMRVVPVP

The substance “pyruvate kinase PKM (PKM2), endogenous in PANC‐1 cells, P14618 1-531 (natural protein; other documents disagree on this pair)” displayed a stoichiometry N of 2.

Usually stoichiometry N stands for a count of units in the complex or per binding partner.
